Tests used:
Experiment in all cases: flow cytometry on transiently transfected L1.2 cells
[1] = molecular target: T1, chimeric receptor 11. mmHm (mouse; human, UniProt P30993 1-111; P30993 264-351, limits assumed)
T1 construct: Transiently expressed on mouse L1.2 cells
T1 sequence: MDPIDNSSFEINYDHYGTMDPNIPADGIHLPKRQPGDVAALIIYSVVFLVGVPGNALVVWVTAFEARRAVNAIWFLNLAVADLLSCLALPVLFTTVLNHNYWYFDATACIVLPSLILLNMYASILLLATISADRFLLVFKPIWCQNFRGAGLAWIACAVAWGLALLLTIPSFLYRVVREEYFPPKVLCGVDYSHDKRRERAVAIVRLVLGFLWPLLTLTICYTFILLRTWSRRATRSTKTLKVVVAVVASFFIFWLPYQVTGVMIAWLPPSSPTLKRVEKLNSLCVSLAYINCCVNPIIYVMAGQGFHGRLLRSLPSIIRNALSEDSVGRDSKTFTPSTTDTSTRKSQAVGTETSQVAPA
Procedure: (§1) A series of chimeric receptors comprising segments of mouse and human C5aR were constructed to identify the region of the C5a receptor that the antibodies bound. […] Each recombinant vector (5 μg diluted in DMEM) encoding a different chimeric receptor was transfected into 5×10⁵ mouse L1.2 cells using Lipofectamine 2000 (Invitrogen). Cells were grown in DMEM or RPMI (Invitrogen) plus 10% foetal bovine serum (Hyclone). After 24 hours or 48 hours, cells were harvested by centrifugation at 1,500 rpm for 5 min and resuspended in FACS buffer (phosphate buffered saline plus 2% bovine serum albumin). For staining with hAb-Q, 0.5×10⁵ transfected cells were incubated with 5 or 10 μg/ml antibody in a volume of 50 μl per well at 4° C. for 20 minutes. Cells were pelleted as above and rinsed 3 times with 150 μl FACS buffer before addition of 50 μl FITC-conjugated anti-human IgG diluted 1:200 or 1:300 (Sigma, F1641). This mix was incubated for 20 min at 4° C. before cells were pelleted, washed with FACS buffer 3 times and finally resuspended in 150-200 μl FACS buffer. Samples were analysed on a FACS Calibur (BD Biosciences).
(§2) To confirm that the humanised antibody hAb-Q, which was derived from mouse mAb 7F3 by CDR grafting, and therefore should contain the same antigen-binding site, had the same staining pattern as 7F3, transiently transfected cells expressing the different chimeric human/mouse C5aR were stained with hAb-Q and analysed by flow cytometry. The pattern of staining by hAb-Q was identical to that observed with 7F3. There was no staining by the secondary antibody (anti-hIgG-FITC) alone.

[2] = molecular target: T2, chimeric receptor 3. mmHH (mouse; human, UniProt P30993 1-111)
T2 construct: range 1-111; Transiently expressed on mouse L1.2 cells
T2 sequence: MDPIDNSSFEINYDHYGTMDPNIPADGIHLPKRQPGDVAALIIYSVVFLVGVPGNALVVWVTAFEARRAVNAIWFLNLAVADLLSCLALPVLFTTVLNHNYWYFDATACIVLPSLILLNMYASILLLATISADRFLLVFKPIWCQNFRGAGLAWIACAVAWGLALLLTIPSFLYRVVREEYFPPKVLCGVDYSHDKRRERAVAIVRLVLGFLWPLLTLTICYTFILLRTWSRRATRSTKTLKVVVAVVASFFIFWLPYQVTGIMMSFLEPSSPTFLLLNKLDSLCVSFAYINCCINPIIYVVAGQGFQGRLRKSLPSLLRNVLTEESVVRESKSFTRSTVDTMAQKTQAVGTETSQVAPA
Procedure: as §1, §2

[3] = molecular target: T3, chimeric receptor 1. HHHH (human, UniProt P21730 1-350)
T3 construct: Transiently expressed on mouse L1.2 cells
T3 chain: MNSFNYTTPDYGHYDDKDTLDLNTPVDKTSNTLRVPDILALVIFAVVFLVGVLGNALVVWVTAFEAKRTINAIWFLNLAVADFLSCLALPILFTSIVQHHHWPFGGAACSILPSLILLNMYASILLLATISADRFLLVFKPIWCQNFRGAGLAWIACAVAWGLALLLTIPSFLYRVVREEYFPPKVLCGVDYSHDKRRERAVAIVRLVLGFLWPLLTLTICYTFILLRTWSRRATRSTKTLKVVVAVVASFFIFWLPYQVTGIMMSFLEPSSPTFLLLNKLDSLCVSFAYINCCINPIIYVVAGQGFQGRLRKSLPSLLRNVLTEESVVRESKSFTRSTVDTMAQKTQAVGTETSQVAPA
Procedure: as §1, §2

[4] = molecular target: T4, chimeric receptor 6. HmHH (human; mouse, UniProt P30993 93-111)
T4 construct: range 93-111; Transiently expressed on mouse L1.2 cells
T4 sequence: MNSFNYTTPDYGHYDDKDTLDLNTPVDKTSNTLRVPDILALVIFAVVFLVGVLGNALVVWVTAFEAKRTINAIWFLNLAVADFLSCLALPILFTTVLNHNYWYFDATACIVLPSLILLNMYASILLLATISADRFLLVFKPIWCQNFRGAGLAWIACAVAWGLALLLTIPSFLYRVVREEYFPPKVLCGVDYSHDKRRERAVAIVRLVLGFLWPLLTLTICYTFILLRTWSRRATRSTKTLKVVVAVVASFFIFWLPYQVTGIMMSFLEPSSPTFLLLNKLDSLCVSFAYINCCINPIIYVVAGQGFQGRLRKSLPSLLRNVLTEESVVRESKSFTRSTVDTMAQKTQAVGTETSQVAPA
Procedure: as §1, §2

[5] = molecular target: T5, chimeric receptor 8. HHHm (human; mouse, UniProt P30993 264-283, limits assumed)
T5 construct: Transiently expressed on mouse L1.2 cells
T5 sequence: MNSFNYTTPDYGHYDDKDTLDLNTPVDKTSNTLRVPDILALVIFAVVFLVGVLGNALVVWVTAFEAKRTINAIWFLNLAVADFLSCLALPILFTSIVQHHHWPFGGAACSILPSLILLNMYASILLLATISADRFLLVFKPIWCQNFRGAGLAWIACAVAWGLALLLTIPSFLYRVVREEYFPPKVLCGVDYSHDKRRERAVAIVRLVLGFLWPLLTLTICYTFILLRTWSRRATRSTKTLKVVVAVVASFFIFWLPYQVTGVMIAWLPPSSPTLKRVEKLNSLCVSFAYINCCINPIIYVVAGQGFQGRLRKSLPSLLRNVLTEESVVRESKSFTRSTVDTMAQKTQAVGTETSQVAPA
Procedure: as §1, §2

Measured: binding result

B1: humanized anti-C5aR antibody hAb-Q (antibody, human IgG4 S228P, kappa)
light: DVVMTQSPLSLPVTLGEPASISCRSSQSLVHSNGNTYLHWYLQKPGQSPQLLIYKVSNRFSGVPDRFSGSGSGTDFTLKISRVEAEDVGVYFCSQSTLVPLTFGQGTKLEIKRTVAAPSVFIFPPSDEQLKSGTASVVCLLNNFYPREAKVQWKVDNALQSGNSQESVTEQDSKDSTYSLSSTLTLSKADYEKHKVYACEVTHQGLSSPVTKSFNRGEC
heavy: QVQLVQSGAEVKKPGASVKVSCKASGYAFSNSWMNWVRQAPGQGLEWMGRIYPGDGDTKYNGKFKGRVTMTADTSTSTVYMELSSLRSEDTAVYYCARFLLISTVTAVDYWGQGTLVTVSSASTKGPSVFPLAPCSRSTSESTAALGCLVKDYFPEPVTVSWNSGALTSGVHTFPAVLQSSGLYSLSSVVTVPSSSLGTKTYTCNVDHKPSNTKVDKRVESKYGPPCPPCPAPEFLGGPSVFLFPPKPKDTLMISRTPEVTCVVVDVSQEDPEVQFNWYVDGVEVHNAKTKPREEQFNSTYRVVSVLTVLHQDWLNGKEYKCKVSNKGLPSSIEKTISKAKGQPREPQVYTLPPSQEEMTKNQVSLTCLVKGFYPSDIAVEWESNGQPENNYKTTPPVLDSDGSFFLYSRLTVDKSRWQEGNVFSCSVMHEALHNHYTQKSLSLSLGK
notes: IgG4 with the Ser228Pro mutation; also called antibody Q; anti-C5aR ab
binds: [1] | [2] | [3] | [4] | [5]

— US20110190477A1 (G2 INFLAMMATION, published 2011)
